The target in this test is recombinant YFV E protein (Meridian Life Science) (Yellow fever virus, UniProt P03314 286-679). Put plainly: ELISA. On the technique in general: An ELISA detects its analyte on a solid surface through an enzyme-linked reagent.
Chain of recombinant YFV E protein (Meridian Life Science) (P03314 286-679): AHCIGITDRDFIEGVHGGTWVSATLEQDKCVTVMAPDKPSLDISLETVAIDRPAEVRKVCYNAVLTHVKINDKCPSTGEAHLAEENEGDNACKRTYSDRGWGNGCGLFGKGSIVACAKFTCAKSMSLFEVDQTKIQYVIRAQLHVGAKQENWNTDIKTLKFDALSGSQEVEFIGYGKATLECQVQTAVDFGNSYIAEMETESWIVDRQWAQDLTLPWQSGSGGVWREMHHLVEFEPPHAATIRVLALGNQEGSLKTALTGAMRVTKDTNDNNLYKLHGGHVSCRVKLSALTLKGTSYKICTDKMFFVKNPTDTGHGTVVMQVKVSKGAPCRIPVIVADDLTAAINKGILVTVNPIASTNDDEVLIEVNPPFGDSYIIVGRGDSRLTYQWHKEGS

B1: human monoclonal antibody YFV-121 (antibody, V domains shown)
VH: EVQLVESGGGLVQPGGSLRLSCAASGFTFSSYSMNWVRQAPGKGLEWVSYISSSSRTIYYADSVKGRFTISRDNAKNSLDLQMNSLRDEDTAVYYCAREVSSHGYRYWGQGTLVTVSS
VL: EIVLTQSPATLSLSPGERATLSCRASQSVSSFLAWYQQKPGQAPRLLIYDASNRATGIPARFTGSGSGTDFTLTISSLEPEDFAVYYCQQRSNWPPWTFGQGTKVEIK
The EC50 is the concentration that produces a half-maximal response. Turning to B1, the EC50 came to 0.311 µg/mL.

B2: human monoclonal antibody YFV-136 (antibody, V domains shown)
VH: QVQLQESGPGLVKPSGTLSLTCAVSGGSISSSNWWSWVRQPPGKGLEWIGDIYHSGSTSYNPSLKSRVTISVDRSKNQFSLKLSSVTAADTAVYYCARAPLVNWYYFDYWGQGTLVTVSS
VL: QSVLTQPPSVSAAPGQKVTISCSGSSSNIGNNYVSWYQQLPGTAPKLLIYDNNKGPSGIPDRFSGSKSGTSATLGITGLQTGDEADYYCGTWDTSLSAGRVFGGGTKLTVL
Regarding B2, the EC50 is 0.27 µg/mL.

These data come from patent US20230072640A1 (published 2023).
